These results are taken from the supplement of paper PMC10567573.

± gives the standard deviation.

The nature of this series: protein stability index of a GFP-peptide fusion (GPS, HEK-293T) (PSI 1-6); higher = more stable.
Setting [1] is: treatment: DMSO, c terminus: a fixed tail appended.
[2] abbreviates: treatment: MLN4924 1 uM, 8 h, c terminus: a fixed tail appended.
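Also: 24-mer peptide tiles fused after GFP, lentivirally expressed, FACS-sorted into six equal bins by GFP/DsRed ratio, decoded by Illumina sequencing, PSI is the read-weighted mean bin number.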

As for KITKVMDVRLDREHRVAGIFPRLS [CLPTM1], the protein stability index reads like this: under setting [1], 2.69 ± 0.17; under setting [2], 2.7 ± 0.36.
For ALFAQVQRGALPAPDPELAAEMYQ [RSAD1], the protein stability index by setting is: under setting [1], 3.69 ± 0.087; under setting [2], 3.78 ± 0.34.
Regarding ELGSESQGASESQAPGEENLLGEA [HDAC6], the protein stability index was 5.63 ± 0.29 under setting [1] and 5.54 ± 0.12 under setting [2].
For RIIDKPRVIEVLPRGATAAVLAPD [SEPHS2], in that order: 3.88 ± 0.23 and 4.08 ± 0.068.
In the case of LGYAASLEASVQDDAGTSGGPSSP [C2CD2L], the protein stability index runs as follows: under setting [1], 5.45 ± 0.34; under setting [2], 5.53 ± 0.22.
With REVSSYPSTVGAEAQEEFLRVLGS [DFFB], the protein stability index worked out at 4.33 ± 0.22 under setting [1] and 4.23 ± 0.16 under setting [2].
In the case of TTTRHKRTANPSKTIDLGAAAHYT [CLINT1], the protein stability index reads like this: under setting [1], 3.94 ± 0.2; under setting [2], 4.06 ± 0.16.
For HILAKNYFSQVPVLASFILDDGEI [IQUB], in that order: 2.2 ± 0.51 and 1.96 ± 0.42.
With KSHVYMAWNIPMSNPGVDFGDVSE [GALNT9], the protein stability index is 2.65 ± 0.26 under setting [1] and 2.79 ± 0.15 under setting [2].
Turning to SPPPAPTSSTFGLQDGNLRAPHKE [CHCHD6], the protein stability index worked out at 5.11 ± 0.5 under setting [1] and 5.32 ± 0.14 under setting [2].
Regarding ESFIKAIGVGLGFELQRLEFDLSP [AASDHPPT], the protein stability index by setting is: under setting [1], 2.89 ± 0.77; under setting [2], 2.84 ± 0.64.
For the sequence VAKLESECLKRQGQREPGSLSRNN [FBXO34], the protein stability index runs as follows: under setting [1], 4.77 ± 0.098; under setting [2], 4.75 ± 0.35.
For VHVFGDELSLVTLFRCIQNMPETL [TNFSF13B], the protein stability index is 2.5 ± 0.31 under setting [1] and 2.58 ± 0.58 under setting [2].
In turn, PEEFSLLKLQTKDGHRPEWTFYPR [SPATS1] returned a protein stability index under setting [1] of 2.76 ± 0.32 and a protein stability index under setting [2] of 2.87 ± 0.49.
LLNSPPSFVCWSRGFMEMNGRGEL [AUP1]: the protein stability index is 2.1 ± 0.52 under setting [1] and 2.07 ± 0.46 under setting [2].
For RGYWGDIATGPFVAFGIEADDESL [DNAAF3], the protein stability index turned out to be 3.65 ± 0.22 under setting [1] and 3.65 ± 0.43 under setting [2].
For SELERLIVPNSNGVITTTPTPPGQ [JUNB], in that order: 4.65 ± 0.16 and 4.75 ± 0.097.
For the sequence EQATSLAILRVIRLVRVFRIFKLS [KCNA1], the protein stability index runs as follows: under setting [1], 2.42 ± 0.63; under setting [2], 2.7 ± 0.26.
As to NRELWKEFSSVGTEMIITKAGRRM [TBX6], the protein stability index worked out at 2.88 ± 0.27 under setting [1] and 3.21 ± 0.4 under setting [2].
As to SNVRWDHESVCKYYLCGFCPAELF [LUC7L3], the protein stability index was 2.25 ± 0.37 under setting [1] and 2.29 ± 0.34 under setting [2].
The matching figures for TISEFILSEDYNKMTPVKNYQAHQ [WDFY2]: 2.66 ± 0.16 and 2.78 ± 0.14.
As for DQTKSIVEKIQAKLPGIAKKKAE [RTN3], the protein stability index (treatment: DMSO, c terminus: native) stood at 5.46 ± 0.17 and the protein stability index (treatment: MLN4924 1 uM, 8 h, c terminus: native) turned out to be 5.56 ± 0.22.
For the sequence KRITAHEALKHPWVCQRSTVASMM [CAMK2B], the protein stability index under setting [1] was 2.5 ± 0.39 and the protein stability index under setting [2] was found to be 2.51 ± 0.26.
For VKDLIKKLLVVDRTRRLGNMKNGA [PRKX], in that order: 2.62 ± 0.57 and 2.33 ± 0.56.
Regarding EVSSPPDTTEEVDHKPKLCRLAKG [PDZK1], under setting [1], the protein stability index amounted to 5.11 ± 0.45.
With GNFQGIRFHYDRNPGTDAVAQTSL [FATE1], the protein stability index under setting [1] turned out to be 3.38 ± 0.22 and the protein stability index under setting [2] is 3.42 ± 0.16.
On to ACYFGHRQVVQDLLKAGAEVNVLN [OSBPL1A], for which the protein stability index by setting is: under setting [1], 2.46 ± 0.2; under setting [2], 2.6 ± 0.38.
On to TDRGNDNWLIKYDCPMDSSSSRDT [PI4K2A], for which the protein stability index reads like this: under setting [1], 4.44 ± 0.2; under setting [2], 4.42 ± 0.075.
In turn, LQTSLENGTRVQEEPELVFTLGDC [FKBP8] showed a protein stability index under setting [1] of 4.34 ± 0.2 and a protein stability index under setting [2] of 4.77 ± 0.25.
As to PQTRSGPECGLAKKPPEESTCFER [ADAMTSL2], the protein stability index is, setting by setting: under setting [1], 5.05 ± 0.22; under setting [2], 5.08 ± 0.33.
The matching figures for DEGFIKEEERPLPEKEYQRQVWLL [KCNA1]: 3.8 ± 0.28 and 3.73 ± 0.24.
In the case of FFKGIDQDIERGVQSEIFLHESYC [LYSMD4], the protein stability index under setting [1] was 2.58 ± 0.27 and the protein stability index under setting [2] came to 2.35 ± 0.19.
PPLREIILGPSSAYTQTQFHNLRN [NFE2L1]: the protein stability index by setting is: under setting [1], 2.47 ± 0.15; under setting [2], 2.65 ± 0.4.
On to RNLQDLARIYIRRTLRNFINDEMQ [PCMTD1], for which the protein stability index is 2.07 ± 0.18 under setting [1] and 2.49 ± 0.69 under setting [2].
PVKTLPFSPSQFLNFWNKQDTLEL [MYBL2]: the protein stability index is, setting by setting: under setting [1], 2.36 ± 0.37; under setting [2], 2.43 ± 0.31.
The matching figures for ANQKLSEKLAAGALPHINARGPVR [CCDC3]: 3.62 ± 0.43 and 3.86 ± 0.77.
Turning to ESAFKLSTGTSRWPSAKSAGWTLA [SCNN1D], the protein stability index was determined as 2.46 ± 0.21 under setting [1] and 3.03 ± 0.17 under setting [2].
Sequence VTHTEISPEQQFDRSVQRLLATRI [TMEM175] registered a protein stability index under setting [1] of 3.2 ± 0.28 and a protein stability index under setting [2] of 3.34 ± 0.25.
The matching figures for LLSDGSNTLSVSYKKGRMMKDISN [SLC6A17]: 3.03 ± 0.27 and 3.35 ± 0.31.
Consider KSVQCGTWTKHAEGGIFTSPNYPS [NETO1], for which the protein stability index was determined as 2.88 ± 0.19 under setting [1] and 2.89 ± 0.24 under setting [2].
On to PNIPKAKSLDGVTNDRTASQGQWG [DHCR7], for which the protein stability index by setting is: under setting [1], 4.65 ± 0.29; under setting [2], 4.84 ± 0.29.
The matching figures for HKESKMTIFEKENFIGRQWEISDD [CRYBA1]: 4.13 ± 0.4 and 4.07 ± 0.3.
For the sequence EEKSVKNTSIRVADFGSATFDHEH [CLK3], the protein stability index was determined as 5.1 ± 0.11 under setting [1] and 5.07 ± 0.21 under setting [2].
Take NVYPEMRVYNNTLTYGEVRNSKAS [GALNT9]: the protein stability index is 3.94 ± 0.22 under setting [1] and 4.14 ± 0.3 under setting [2].
QLQPTFTPMRVALAGTFHYYSCER [NSDHL] registered a protein stability index under setting [1] of 2.18 ± 0.24 and a protein stability index under setting [2] of 2.26 ± 0.044.
As for GSRLAEFGAAGVNRLSIGLQSLDD [RSAD1], the protein stability index runs as follows: under setting [1], 4.22 ± 0.48; under setting [2], 4.09 ± 0.34.
Take LTLSAGDLGGSIYANLALSGLIEI [SLC22A15]: the protein stability index reads like this: under setting [1], 2.77 ± 0.91; under setting [2], 3.43 ± 0.74.
With PGGGGSPGACPALGTKSCSSSCAV [RTN3], the protein stability index under setting [1] worked out at 3.73 ± 0.42 and the protein stability index under setting [2] is 4.07 ± 0.22.
WQLFGPFGAVTNVKVIRDFTTNKC [ELAVL3] registered a protein stability index under setting [1] of 2.36 ± 0.37 and a protein stability index under setting [2] of 2.2 ± 0.26.
Consider LSCTLVPRSGEQAEGSPGGPGDSQ [CDKN1A], for which the protein stability index runs as follows: under setting [1], 5.03 ± 0.41; under setting [2], 5.05 ± 0.13.
As to ANDGDYWRLLNPGEYVVTAKAEGF [CPXM2], the protein stability index runs as follows: under setting [1], 2.81 ± 0.35; under setting [2], 2.87 ± 0.081.
Take PVKSYDYLLKFLLVGDSDVGKGEI [RAB40C]: the protein stability index was found to be 2.06 ± 0.19 under setting [1] and 2 ± 0.24 under setting [2].
For ELIRVEVEILDLNDNSPSFATPER [PCDHGC5], the protein stability index by setting is: under setting [1], 2.42 ± 0.26; under setting [2], 2.43 ± 0.25.
For SPEWDTVTPEAKDLINKMLTINPA [CAMK2D], in that order: 4.24 ± 0.42 and 4.54 ± 0.12.
IDNSSEIEDEDQILENSSQKENVF [FAN1] gave a protein stability index under setting [1] of 5.39 ± 0.28 and a protein stability index under setting [2] of 5.2 ± 0.56.
LMGDESACIAYIRITQYLDAGGIP [CAMK2A]: the protein stability index runs as follows: under setting [1], 3.21 ± 0.89; under setting [2], 2.77 ± 0.68.
The matching figures for FRDPIWSTWALYGRAVDQDKVLRF [MYORG]: 2.12 ± 0.39 and 2.11 ± 0.15.
For PGRSALIVAVLCYINLLNYMDRFT [SPNS1], in that order: 2.81 ± 0.88 and 3.44 ± 0.31.
As for GSKNVFSTFRTPAVLFTGIVALYI [ATL3], the protein stability index is, setting by setting: under setting [1], 3.11 ± 0.7; under setting [2], 2.67 ± 0.57.
LPHDFIDSLEKTDDDKYKITLKYP [NLN] yielded a protein stability index under setting [1] of 3.7 ± 0.3 and a protein stability index under setting [2] of 3.13 ± 0.089.
For FTDFNATSALFWEQHDLVYGDWTS [CLPTM1], in that order: 2.29 ± 0.67 and 2.53 ± 0.27.
On to DSRIRFGFLTVTNLGVENMNHYKK [PTPN9], for which the protein stability index is 2.53 ± 0.19 under setting [1] and 2.7 ± 0.31 under setting [2].
Turning to IFEGNSEKEIPVLNELPVPMVARY [CPXM2], the protein stability index reads like this: under setting [1], 3.55 ± 0.16; under setting [2], 3.37 ± 0.33.
On to LLVYDITNRWSFDGIDRWIKEIDE [RAB40C], for which the protein stability index reads like this: under setting [1], 2.05 ± 0.22; under setting [2], 2.18 ± 0.45.
For SVRGYMMSKQRERQLRRRALHPER [RETREG3], in that order: 3.43 ± 0.047 and 3.73 ± 0.31.
In turn, IWAQGWVPAAGGPAPKRGYSSEMK [AUH] yielded a protein stability index under setting [2] of 2.9 ± 0.29.
On to DLRHLRAVPTDEARAFAEKNGLSF [RAB11A], for which the protein stability index is, setting by setting: under setting [1], 3.54 ± 0.2; under setting [2], 3.52 ± 0.22.
On to YAILDEKKSELLQRITQEQEKKLS [TRIM63], for which the protein stability index under setting [1] was determined as 4.35 ± 0.17 and the protein stability index under setting [2] was 4.52 ± 0.13.
On to DMENKENGSVGVKNSMENGRPPDP [SAMD13], for which the protein stability index reads like this: under setting [1], 5.11 ± 0.27; under setting [2], 5.15 ± 0.32.
As to VPEEPPVKKLMRTSTPPPASVINN [ZBED1], the protein stability index by setting is: under setting [1], 4.89 ± 0.29; under setting [2], 4.94 ± 0.19.
Take SKPSIQPKPLLLPAAPKTQTISSI [ATF6]: the protein stability index worked out at 3.88 ± 0.32 under setting [1] and 3.82 ± 0.31 under setting [2].
The matching figures for IDFSPYLEPLGAPQAPAPATATDT [CEBPB]: 4.42 ± 0.31 and 4.35 ± 0.37.
